{"source": "patent US20050282190", "about": "“Modular design and construction of nucleic acid molecules, aptamer-derived nucleic acid constructs, RNA scaffolds, their expression, and methods of use” (published 2005)", "binders": {"B1": {"name": "S1 (ssRNA)", "RNA": "GGGAGUCGACCGACCAGAAUCAUGCAAGUGCGUAAGAUAGUCGCGGGCCGGGGGCGUAUUAUGUGCGUCUACAUCUAGACUCAU"}, "B2": {"name": "S1 con (ssRNA)", "RNA": "GGGACCGACCAGAAUCAUGCAAGUGCGUAAGAUAGUCGCGGGCCGGG"}, "B3": {"name": "RA1-HSF (ssRNA)", "RNA": "GGGAGAAUUCAACUGCCAUCUAGGCAUCGCGAUACAAAAUUAAGUUGAACGCGAGUUCUCCAUCUAGUACUACAAGCUUCUGGACUCGGU"}, "B4": {"name": "aptabody T-S (ssRNA)", "RNA": "GGGAUCGCCGCCGAGCCCGGGAGCUCGGCGGCCACAGCGGUGGGAGCCCGGGAGCUCCCACCAGCGUUCCCGGAUCCGUGACCGACCAGAAUCAUGCAAGUGCGUAAGAUAGUCGCGGGUCGGGUCAUACUCCCGGCCAGAAUCAUGCAAGUGCGUAAGAUAGUCGCGGGCCGGGAGGCGGAUUC"}, "B5": {"name": "m12 (mini AptTBP-12) (ssRNA)", "RNA": "GGCGCCGUGCCCGGUUUGGAUAGGCACAUAAGACGCC"}, "B6": {"name": "aptabody B-R (ssRNA)", "RNA": "GGGAUCGCCGCGGCUGGUCAACCAGGCGACCGCCGCGGCCACAGCGGUGGGCUGGUCAACCAGGCGACCGCCCACCAGCGUUCCCGGAUCCGUGACGUCAACACGGUCCCGGACGUGUUGACGUCCAUACUCCUCAACACGGUCCCGGACGUGUUGAGGAGGCGGAUUC"}, "B7": {"name": "AptTBP-12 (ssRNA)", "RNA": "GGGAGAAUUCAACUGCCAUCUAGGCGCCGUGCCCGGUUUGGAUAGGCACAUAAGACGCCGACAAAGAAACCAACCAGUACUACAAGCUUCUGGACUCGGU"}, "B8": {"name": "aptabody B-S (ssRNA)", "RNA": "GGGAUCGCCGCGGCUGGUCAACCAGGCGACCGCCGCGGCCACAGCGGUGGGCUGGUCAACCAGGCGACCGCCCACCAGCGUUCCCGGAUCCGUGACCGACCAGAAUCAUGCAAGUGCGUAAGAUAGUCGCGGGUCGGGUCAUACUCCCGGCCAGAAUCAUGCAAGUGCGUAAGAUAGUCGCGGGCCGGGAGGCGGAUUC"}, "B9": {"name": "AptTBP-101 (ssRNA)", "RNA": "GGGAGAAUUCAACUGCCAUCUAGGCAGCCAAGGUAAACAAUUCAGUUAGUGGAAUGAAACUGCCCAACACCAGAAGUACUACAAGCUUCUGGACUCGGU"}}, "key": {"Streptavidin [1]": {"target": "T1, Streptavidin (UniProt P22629 P22629:25-183)", "T1 sequence (P22629 25-183, one chain of several)": "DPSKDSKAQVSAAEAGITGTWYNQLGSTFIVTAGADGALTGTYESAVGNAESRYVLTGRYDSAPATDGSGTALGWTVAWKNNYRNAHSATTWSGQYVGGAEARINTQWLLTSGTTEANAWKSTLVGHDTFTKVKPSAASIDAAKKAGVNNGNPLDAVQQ", "assay": "original aptamer used as reference in deletion analysis", "details": "tags: ImmunoPure streptavidin, Pierce; HRP or Texas Red conjugates in immunoassays; chain copies: 4"}, "Streptavidin [2]": {"target": "T1, Streptavidin", "assay": "EMSA; reduced S1 retains full activity", "details": "tags: ImmunoPure streptavidin, Pierce; HRP or Texas Red conjugates in immunoassays; chain copies: 4", "procedure": "All binding assays were performed in 20 μl volume. The binding buffer contains 50 mM Tris-Cl (pH 7.4), 100 mM NaCl, 15 mM MgCl₂, 10% glycerol, and 1 mM DTT. A typical binding assay using labeled RNA contains about 20 fmole of ³²P-labeled RNA probe and different amounts (1-10 pmole, indicated by L and H in FIG. 5B) of protein or non-labled RNA. The reactions were allowed to equilibrate for 15-20 minutes at ambient temperature before being subjected to EMSA.\nFor BBS-B52 interaction, EMS assay was performed at 4° C. The binding reaction mixtures were set at 4° C. for 5-10 minutes before being loaded onto a 2.5% agarose gel in ¼ TBE buffer. For the streptavidin aptamers and the TAR aptamers, EMSA were performed at ambient temperature with 6% or 12% native polyacrylamide gel run in TG buffer (25 mM Tris base, 200 mM glycine, and 5 mM MgCl₂)."}, "HSF (heat shock factor)": {"target": "T2, HSF (heat shock factor) (UniProt P22813 P22813:1-691)", "T2 sequence": "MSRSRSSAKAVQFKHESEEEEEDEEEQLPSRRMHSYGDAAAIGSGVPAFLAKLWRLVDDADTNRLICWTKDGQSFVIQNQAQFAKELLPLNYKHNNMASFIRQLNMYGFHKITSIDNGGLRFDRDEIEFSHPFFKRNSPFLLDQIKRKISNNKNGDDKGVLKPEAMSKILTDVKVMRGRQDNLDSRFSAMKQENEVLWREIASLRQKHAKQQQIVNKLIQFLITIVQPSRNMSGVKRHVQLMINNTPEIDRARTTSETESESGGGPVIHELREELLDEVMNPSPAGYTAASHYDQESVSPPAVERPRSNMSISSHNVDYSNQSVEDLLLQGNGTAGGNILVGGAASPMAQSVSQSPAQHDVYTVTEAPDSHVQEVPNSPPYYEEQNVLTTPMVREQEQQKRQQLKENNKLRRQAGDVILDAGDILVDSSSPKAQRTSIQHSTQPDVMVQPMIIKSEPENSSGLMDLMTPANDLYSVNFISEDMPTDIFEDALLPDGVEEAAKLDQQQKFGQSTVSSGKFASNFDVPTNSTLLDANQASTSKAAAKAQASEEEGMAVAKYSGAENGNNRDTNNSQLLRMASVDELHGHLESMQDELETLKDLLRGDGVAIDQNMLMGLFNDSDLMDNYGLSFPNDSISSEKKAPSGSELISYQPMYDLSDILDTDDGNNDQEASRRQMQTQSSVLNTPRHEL", "assay": "EMSA; affinity measured, value only in figure", "details": "tags: His; three-way junction"}, "Streptavidin [3]": {"target": "T1, Streptavidin", "assay": "T-S secondary aptabody detected by HRP-streptavidin", "details": "tags: ImmunoPure streptavidin, Pierce; HRP or Texas Red conjugates in immunoassays; chain copies: 4; two fused three-way junctions, two TAR-Mal and two S1 modules", "procedure": "(§1) Western blot analysis for antibodies was performed according to a standard protocol (Harlow et al., Using Antibodies: A Laboratory Manual. Cold Spring Harbor, Cold Spring Harbor Laboratory Press (1999), which is hereby incorporated by reference in its entirety). For the aptabodies, proteins were separated on 8% SDS-PAGE and transferred to nitrocellulose membrane according to the aforementioned standard protocol. Subsequent steps were also identical except the following substitutions. The RNA aptabody B-S (FIG. 5A) (10 μg/ml) and horseradish peroxidase conjugated streptavidin (1 μg/ml) were used to replace the primary and secondary antibodies. […]\n(§2) First, a Western blot analysis was conducted with the aptabodies and a monoclonal antibody against B52. The sample to be analyzed contained a full-length B52 produced from a baculovirus expression system, a His-tagged B52 deletion construct that contained the two RNA recognition motifs recognized by the aptamers and the monoclonal antibody By32 (Champlin et al., “Characterization of a Drosophila Protein Associated with Boundaries of Transcriptionally Active Chromatin,” Genes and Development 5:1611-1621 (1991), which is hereby incorporated by reference in its entirety), and a His-tagged Drosophila heat shock factor as control. […]"}, "[4]": {"target": "T3, TBP (TATA-binding protein) (UniProt P13393 P13393:1-240)", "T3 sequence": "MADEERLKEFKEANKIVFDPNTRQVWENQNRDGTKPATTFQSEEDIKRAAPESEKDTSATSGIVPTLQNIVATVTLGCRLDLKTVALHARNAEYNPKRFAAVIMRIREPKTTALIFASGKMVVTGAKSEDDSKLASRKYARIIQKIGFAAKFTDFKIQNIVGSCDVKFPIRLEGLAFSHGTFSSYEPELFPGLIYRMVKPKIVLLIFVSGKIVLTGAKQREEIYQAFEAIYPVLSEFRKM", "assay": "reduced form fully retained binding; used to mask DNA-binding surface of TBP"}, "[5]": {"target": "T4, B52 RRMs (two RNA recognition motifs) (UniProt P26686 P26686:4-188)", "T4 sequence (P26686 other isoform, or with tags, fused parts or gaps)": "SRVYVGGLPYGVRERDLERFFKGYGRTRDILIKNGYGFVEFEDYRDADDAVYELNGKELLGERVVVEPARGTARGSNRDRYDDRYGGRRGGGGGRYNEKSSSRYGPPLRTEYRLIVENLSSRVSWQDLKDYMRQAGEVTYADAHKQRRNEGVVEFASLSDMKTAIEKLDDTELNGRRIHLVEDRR", "assay": "Western blot with B-R then T-S then HRP-streptavidin", "details": "tags: His; two fused three-way junctions, two BBS and two R-06 modules", "procedure": "as §1, §2"}, "[6]": {"target": "T5, B52 (SR protein), full-length (UniProt P26686 P26686:2-350)", "T5 sequence (P26686 other isoform, or with tags, fused parts or gaps)": "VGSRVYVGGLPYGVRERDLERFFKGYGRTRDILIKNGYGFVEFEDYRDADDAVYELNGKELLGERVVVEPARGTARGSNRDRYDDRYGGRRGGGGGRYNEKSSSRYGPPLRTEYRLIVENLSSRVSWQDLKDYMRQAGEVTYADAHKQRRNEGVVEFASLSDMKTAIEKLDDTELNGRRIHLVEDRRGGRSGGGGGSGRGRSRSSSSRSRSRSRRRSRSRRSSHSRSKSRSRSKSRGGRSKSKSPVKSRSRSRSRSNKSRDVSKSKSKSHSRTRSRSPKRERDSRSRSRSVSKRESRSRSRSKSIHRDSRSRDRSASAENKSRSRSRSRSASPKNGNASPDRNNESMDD", "assay": "Western blot with B-R then T-S then HRP-streptavidin", "details": "tags: baculovirus expressed; two fused three-way junctions, two BBS and two R-06 modules", "procedure": "as §1, §2"}, "[7]": {"target": "T3, TBP (TATA-binding protein)", "assay": "filter; AptTBP-101 Kd stated to be similar to that of AptTBP-12 complex; binds DNA-binding surface and competes with TATA-DNA (p252)"}, "Streptavidin [8]": {"target": "T1, Streptavidin", "assay": "streptavidin conjugates as secondary reagent in Western, dot blot and immunofluorescence", "details": "tags: ImmunoPure streptavidin, Pierce; HRP or Texas Red conjugates in immunoassays; chain copies: 4; two fused three-way junctions, two BBS and two S1 aptamers"}, "[9]": {"target": "T4, B52 RRMs (two RNA recognition motifs)", "assay": "Western blot and dot blot; as low as 1 ng protein detected", "details": "tags: His; two fused three-way junctions, two BBS and two S1 aptamers", "procedure": "as §1, §2"}, "[10]": {"target": "T5, B52 (SR protein), full-length", "assay": "Western blot with HRP-streptavidin; 15 mM MgCl2", "details": "tags: baculovirus expressed; two fused three-way junctions, two BBS and two S1 aptamers", "procedure": "as §1, §2"}, "[11]": {"target": "T3, TBP (TATA-binding protein)", "assay": "filter", "details": "three-way junction with asymmetric internal loop and apical loop"}}, "data": [{"binder": "B1", "values": [{"measurement": "binding result", "setting": "Streptavidin [1]", "result": "binds"}]}, {"binder": "B2", "values": [{"measurement": "binding result", "setting": "Streptavidin [2]", "result": "binds"}]}, {"binder": "B3", "values": [{"measurement": "binding result", "setting": "HSF (heat shock factor)", "result": "binds"}]}, {"binder": "B4", "values": [{"measurement": "binding result", "setting": "Streptavidin [3]", "result": "binds"}]}, {"binder": "B5", "values": [{"measurement": "binding result", "setting": "[4]", "result": "binds"}]}, {"binder": "B6", "values": [{"measurement": "binding result", "setting": "[5]", "result": "binds"}, {"measurement": "binding result", "setting": "[6]", "result": "binds"}]}, {"binder": "B7", "values": [{"measurement": "Kd", "setting": "[7]", "result": "~2", "unit": "nM"}]}, {"binder": "B8", "values": [{"measurement": "binding result", "setting": "Streptavidin [8]", "result": "binds"}, {"measurement": "binding result", "setting": "[9]", "result": "binds"}, {"measurement": "binding result", "setting": "[10]", "result": "binds"}]}, {"binder": "B9", "values": [{"measurement": "Kd", "setting": "[11]", "result": 2, "unit": "nM"}]}]}
